Target: zebrafish Ccr5 (Ccr5-like, on pax3a+ muscle stem cells of larval zebrafish) (zebrafish)
Assay: cell-based or functional assay

Substance: recombinant murine CCL8/MCP-2 (PeproTech) (from UniProt Q9Z121 24-97) (ligand)
- cell proliferation external to the site of injury in larval zebrafish (EdU): 43%
- wound site proliferation in larval zebrafish (EdU): 28.3%
